From US20240376208A1 (AFFIMED, published 2024)
Where two headings read alike, the source gives them in different places.

How the values were obtained:
Test in all cases: cell-based or functional assay
[1] = target: T1, EGFR on tumor target cells (MCF-7, Daudi, DK-MG, HCT-116) (UniProt P00533 25-1210, limits assumed)
[2] = target: T1, EGFR on tumor target cells (MCF-7, …); remark: listed apart in the source
[3] = target: CD16A on primary human NK cells (human, UniProt P08637 17-254)
[4] = target: T1, EGFR on tumor target cells (MCF-7, …); remark: listed apart in the source

Chain of CD16A on primary human NK cells (P08637 17-254 limits assumed): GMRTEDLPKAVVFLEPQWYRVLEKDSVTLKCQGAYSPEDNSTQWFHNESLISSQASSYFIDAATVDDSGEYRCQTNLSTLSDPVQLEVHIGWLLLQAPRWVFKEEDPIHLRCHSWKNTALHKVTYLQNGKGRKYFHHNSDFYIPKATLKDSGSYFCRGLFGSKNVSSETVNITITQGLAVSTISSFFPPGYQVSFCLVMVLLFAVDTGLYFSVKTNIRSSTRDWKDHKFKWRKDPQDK

Binder	EC50 [pM], 4 h calcein-release cytotoxicity on Daudi target cells, NK cells E:T 5:1 [1]	Emax [%], 4 h calcein-release cytotoxicity on Daudi target cells, NK cells E:T 5:1 [1]	EC50 [pM], 4 h calcein-release cytotoxicity on MCF-7 target cells, NK cells E:T 5:1 [2]	Emax [%], 4 h calcein-release cytotoxicity on MCF-7 target cells, NK cells E:T 5:1 [2]	Emax [%], 4 h calcein-release NK cell fratricide assay, E:T 1:1 [3]	EC50 [pM], 4 h calcein-release NK cell fratricide assay, E:T 1:1 [3]	Emax [%], 4 h calcein-release cytotoxicity on Daudi target cells, NK cells E:T 5:1 [4]
Bi-scDb-IgAb_06 (bispecific antibody) heavy: QVQLQESGPGLVKPSETLSLTCTVSGGSVSSGSYYWSWIRQPPGKGLEWIGYIYYSGSTNYNPSLKSRVTISVDTSKNQFSLKLSSVTAADTAVYYCARNPISIPAFDIWGQGTMVTVSSASTKGPSVFPLAPSSKSTSGGTAALGCLVKDYFPEPVTVSWNSGALTSGVHTFPAVLQSSGLYSLSSVVTVPSSSLGTQTYICNVNHKPSNTKVDKKVEPKSCDKTHTCPPCPAPEFEGGPSVFLFPPKPKDTLMISRTPEVTCVVVAVSHEDPEVKFNWYVDGVEVHNAKTKPREEQYNSTYRVVSVLTVLHQDWLNGKEYKCKVSNKALPAPIEKTISKAKGQPREPQVYTLPPSREEMTKNQVSLTCLVKGFYPSDIAVEWESNGQPENNYKTTPPVLDSDGSFFLYSKLTVDKSRWQQGNVFSCSVMHEALHNHYTQKSLSLSPGGGGGSGGGGSSYVLTQPSSVSVAPGQTATISCGGHNIGSKNVHWYQQRPGQSPVLVIYQDNKRPSGIPERFSGSNSGNTATLTISGTQAMDEADYYCQVWDNYSVLFGGGTKLTVLGGSGGSQVQLVQSGAEVKKPGESLKVSCKASGYTFTSYYMHWVRQAPGQGLEWMGAIEPMYGSTSYAQKFQGRVTMTRDTSTSTVYMELSSLRSEDTAVYYCARGSAYYYDFADYWGQGTLVTVSSGGSGGSGGSGGSGGSGGSSYVLTQPSSVSVAPGQTATISCGGHNIGSKNVHWYQQRPGQSPVLVIYQDNKRPSGIPERFSGSNSGNTATLTISGTQAMDEADYYCQVWDNYSVLFGGGTKLTVLGGSGGSQVQLVQSGAEVKKPGESLKVSCKASGYTFTSYYMHWVRQAPGQGLEWMGAIEPMYGSTSYAQKFQGRVTMTRDTSTSTVYMELSSLRSEDTAVYYCARGSAYYYDFADYWGQGTLVTVSS light: QPVLTQPPSVSVAPGKTARITCGGNNIGSKSVHWYQQKPGQAPVLVIYYDSDRPSGIPERFSGSNSGNTATLTISRVEAGDEADYYCQVWDTSSDHVLFGGGTKLTVLGQPKAAPSVTLFPPSSEELQANKATLVCLISDFYPGAVTVAWKADSSPVKAGVETTTPSKQSNNKYAASSYLSLTPEQWKSHRSYSCQVTHEGSTVEKTVAPTECS	18.6 pM	18.2%	2.1 pM	25%	15%		
scFv-IgAb_43 (bispecific antibody) heavy: QVQLQESGPGLVKPSETLSLTCTVSGGSVSSGSYYWSWIRQPPGKGLEWIGYIYYSGSTNYNPSLKSRVTISVDTSKNQFSLKLSSVTAADTAVYYCARNPISIPAFDIWGQGTMVTVSSASTKGPSVFPLAPSSKSTSGGTAALGCLVKDYFPEPVTVSWNSGALTSGVHTFPAVLQSSGLYSLSSVVTVPSSSLGTQTYICNVNHKPSNTKVDKKVEPKSCDKTHTCPPCPAPEFEGGPSVFLFPPKPKDTLMISRTPEVTCVVVAVSHEDPEVKFNWYVDGVEVHNAKTKPREEQYNSTYRVVSVLTVLHQDWLNGKEYKCKVSNKALPAPIEKTISKAKGQPREPQVYTLPPSREEMTKNQVSLTCLVKGFYPSDIAVEWESNGQPENNYKTTPPVLDSDGSFFLYSKLTVDKSRWQQGNVFSCSVMHEALHNHYTQKSLSLSPGGGGGSGGGGSGGGGSGGGGSGGGGSGGGGSSYVLTQPSSVSVAPGQTATISCGGHNIGSKNVHWYQQRPGQSPVLVIYQDNKRPSGIPERFSGSNSGNTATLTISGTQAMDEADYYCQVWDNYSVLFGGGTKLTVLGGSGGSGGSGGSGGSGGSGGSQVQLVQSGAEVKKPGESLKVSCKASGYTFTSYYMHWVRQAPGQGLEWMGAIEPMYGSTSYAQKFQGRVTMTRDTSTSTVYMELSSLRSEDTAVYYCARGSAYYYDFADYWGQGTLVTVSS light: QPVLTQPPSVSVAPGKTARITCGGNNIGSKSVHWYQQKPGQAPVLVIYYDSDRPSGIPERFSGSNSGNTATLTISRVEAGDEADYYCQVWDTSSDHVLFGGGTKLTVLGQPKAAPSVTLFPPSSEELQANKATLVCLISDFYPGAVTVAWKADSSPVKAGVETTTPSKQSNNKYAASSYLSLTPEQWKSHRSYSCQVTHEGSTVEKTVAPTECS	151 pM	10%	9.2 pM	16.2%	6.9%	3510 pM	9.3%
scFv-Fc-scDb_04 (bispecific antibody) QVQLQESGPGLVKPSETLSLTCTVSGGSVSSGSYYWSWIRQPPGKGLEWIGYIYYSGSTNYNPSLKSRVTISVDTSKNQFSLKLSSVTAADTAVYYCARNPISIPAFDIWGQGTMVTVSSGGSGGSGGSGGSGGSGGSQPVLTQPPSVSVAPGKTARITCGGNNIGSKSVHWYQQKPGQAPVLVIYYDSDRPSGIPERFSGSNSGNTATLTISRVEAGDEADYYCQVWDTSSDHVLFGGGTKLTVLGGGGSDKTHTCPPCPAPEFEGGPSVFLFPPKPKDTLMISRTPEVTCVVVAVSHEDPEVKFNWYVDGVEVHNAKTKPREEQYGSTYRVVSVLTVLHQDWLNGKEYKCKVSNKALPAPIEKTISKAKGQPREPQVYTLPPSREEMTKNQVSLTCLVKGFYPSDIAVEWESNGQPENNYKTTPPVLDSDGSFFLYSKLTVDKSRWQQGNVFSCSVMHEALHNHYTQKSLSLSPGGGGGSGGGGSSYELTQPLSVSVALGQTARITCGGHNIGSKNVHWYQQKPGQAPVLVIYQDNKRPSGIPERFSGSNSGNTATLTISRAQAGDEADYYCQVWDNYNVLFGCGTKLTVLGGSGGSQVQLVQSGAEVKKPGASVKVSCKASGYTFTSYYMHWVRQAPGQCLEWMGAIEPTYGSTSYAQKFQGRVTMTRDTSTSTVYMELSSLRSEDTAVYYCARGSAYYYDFADYWGQGTLVTVSSGGSGGSGGSGGSGGSGGSSYELTQPLSVSVALGQTARITCGGHNIGSKNVHWYQQKPGQAPVLVIYQDNKRPSGIPERFSGSNSGNTATLTISRAQAGDEADYYCQVWDNYNVLFGCGTKLTVLGGSGGSQVQLVQSGAEVKKPGASVKVSCKASGYTFTSYYMHWVRQAPGQCLEWMGAIEPTYGSTSYAQKFQGRVTMTRDTSTSTVYMELSSLRSEDTAVYYCARGSAYYYDFADYWGQGTLVTVSS							22.6%
